Assay [1] deals with Acrophialophora nainiana xylanases.
Assay [2] has the same target. The source holds these as a separate data set.
Assay [3] addresses Aspergillus niger xylanases.

In the case of “Coffea arabica Chitinase-like Xylanase Inhibitor Protein (natural protein)”, in assay [1], the Inhibition (%) of xylanase activity (oat spelt xylan, DNS reagent, Abs 540 nm; enzymes:inhibitor ratio 12:1 w/w) is 56%. Further, the Inhibition (%) of xylanase activity (oat spelt xylan, DNS reagent, Abs 540 nm; 60 μg xylanases, 5 μg CaclXIP, 12:1 w/w, 50°C, 30 min) was 57% in assay [2] and 19.5% in assay [3].

The values are drawn from publication PMC3045311.
